Test results: US20100255006A1 (Takeda / Millennium, published 2010)
Values belong to the molecule of their own block, whether it stands above or below them.

Assays:
[1] = molecular target: caspase-1 as expressed in the IL-1β secretion assays (UniProt P29466); assay: cell-based or functional assay
[2] = molecular target: T1, CARD of caspase-1 (mammalian two-hybrid construct) (UniProt P29466 1-91); assay: mammalian two-hybrid in 293T cells, pFR-Luc firefly reporter
T1 construct: domain: CARD; also called the CARD of caspase-1; not shown: two-hybrid fusion partner from a pCMV/AD or pCMV/BD plasmid
T1 sequence (looked up): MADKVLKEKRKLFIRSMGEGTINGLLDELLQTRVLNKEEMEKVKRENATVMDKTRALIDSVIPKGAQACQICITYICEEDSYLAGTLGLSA
Protocol: CARD-5 is a relatively small protein containing an N-terminal PYRIN domain and a C-terminal CARD domain (see, e.g., Masumoto et al. (1999) J. Biol. Chem. 274:33835-38). To identify whether the CARD domain of a CARD-containing protein interacted with the CARD of CARD-5, mammalian two-hybrid analysis was carried out using the CARD domains of 22 CARD-containing proteins (FIG. 13A). Mammalian two-hybrid assays were performed as described by Wang et al. (2001) J. Biol. Chem. 276:21405-21409. 293T cells were transfected with pCMV/AD and pCMVIBD plasmids, pFR-Luc firefly reporter (Stratagene), and pRL-TK Renilla reporter (Promega).

[3] = molecular target: CARD-5 (ASC) as expressed in the NF-kB and IL-1β secretion assays (UniProt Q9ULZ3 1-195); assay: cell-based or functional assay

secreted IL-1β (ELISA of supernatants of COS-7L cells co-transfected with mouse pro-IL-1β) [1]: 150 to 400 pg/mL
Molecule: CARD-5 (ASC) as expressed in the NF-kB and IL-1β secretion assays (from UniProt Q9ULZ3 1-195)

fold activation of luciferase activity (mammalian two-hybrid) [2]: 24 fold
B1: CARD of CARD-5 (mammalian two-hybrid construct) (other, UniProt Q9ULZ3 107-195, looked up)
chain: AAKPGLHFIDQHRAALIARVTNVEWLLDALYGKVLTDEQYQAVRAEPTNPSKMRKLFSFTPAWNWTCKDLLLQALRESQSYLVEDLERS
notes: domain: CARD; also called CARD domain of CARD-5; the CARD of CARD-5 (ASC); not shown: two-hybrid fusion partner from a pCMV/AD or pCMV/BD plasmid

NF-kB activity (relative luciferase activity, pNF-kB-Luc reporter in 293T cells) [3]: 150 fold
B2: full-length PYRIN-8 (PYRIN-8-FL, residues 1-1061 of SEQ ID NO:18) with a C-terminal FLAG epitope (other, not shown: small tags and cut ends)
chain: MLRTAGRDGLCRLSTYLEELEAVELKKFKLYLGTATELGEGKIPWGSMEKAGPLEMAQLLITHFGPEEAWRLALSTFERINRKDLWERGQREDLVRDTPPGGPSSLGNQSTCLLEVSLVTPRKDPQETYRDYVRRKFRLMEDRNARLGECVNLSHRYTRLLLVKEHSNPMQVQQQLLDTGRGHARTVGHQASPIKIETLFEPDEERPEPPRTVVMQGAAGIGKSMLAHKVMLDWADGKLFQGRFDYLFYINCREMNQSATECSMQDLIFSCWPEPSAPLQELIRVPERLLFIIDGFDELKPSFHDPQGPWCLCWEEKRPTELLLNSLIRKKLLPELSLLITTRPTALEKLHRLLEHPRHVEILGFSEAERKEYFYKYFHNAEQAGQVFNYVRDNEPLFTMCFVPLVCWVVCTCLQQQLEGGGLLRQTSRTTTAVYMLYLLSLMQPKPGAPRLQPPPNQRGLCSLAADGLWNQKILFEEQDLRKHGLDGEDVSAFLNMNIFQKDINCERYYSFIHLSFQEFFAAMYYILDEGEGGAGPDQDVTRLLTEYAFSERSFLALTSRFLFGLLNEETRSHLEKSLCWKVSPHIKMDLLQWIQSKAQSDGSTLQQGSLEFFSCLYEIQEEEFIQQALSHFQVIVVSNIASKMEHMVSSFCLKRCRSAQVLHLYGATYSADGEDRARCSAGAHTLLVQLPERTVLLDAYSEHLAAALCTNPNLIELSLYRNALGSRGVKLLCQGLRHPNCKLQNLRLKRCRISSSACEDLSAALIANKNLTRMDLSGNGVGFPGMMLLCEGLRHPQCRLQMIQLRKCQLESGACQEMASVLGTNPHLVELDLTGNALEDLGLRLLCQGLRHPVCRLRTLWLKICRLTAAACDELASTLSVNQSLRELDLSLNELGDLGVLLLCEGLRHPTCKLQTLRLGICRLGSAACEGLSVVLQANHNLRELDLSFNDLGDWGLWLLAEGLQHPACRLQKLWLDSCGLTAKACENLYFTLGINQTLTDLYLTNNALGDTGVRLLCKRLSHPGCKLRVLWLFGMDLNKMTHSRLAALRVTKPYLDIGC
